Laboratory results published in article PMC11674933, “Discovery of Carbonic Anhydrase 9 as a Novel CLEC2 Ligand in a Cellular Interactome Screen” (Cells, 2024).

Target: CA9^38−414-His-avi (human, UniProt Q16790, biotin (biotinylated))
Assay: AlphaScreen or HTRF; validation of the AlphaLISA set-up (Figure S6) with tagged G250 against a control library protein; CA9 on the beads at 15 nM or 60 nM
Conditions: one partner purified

B1: 2E3 tagged Girentuximab (G250) (antibody, V domains shown)
VH: DVKLVESGGGLVKLGGSLKLSCAASGFTFSNYYMSWVRQTPEKRLELVAAINSDGGITYYLDTVKGRFTISRDNAKNTLYLQMSSLKSEDTALFYCARHRSGYFSMDYWGQGTSVTVSS
VL: DIVMTQSQRFMSTTVGDRVSITCKASQNVVSAVAWYQQKPGQSPKLLIYSASNRYTGVPDRFTGSGSGTDFTLTISNMQSEDLADFFCQQYSNYPWTFGGGTKLEIK
notes: tagged versions of Girentuximab (G250); also called anti-CA9; G250 constructs
Does B1 bind?
Result: binds
